Test results published in patent US20230265187A1 (published 2023).
Changes are numbered by the printed parent chain.

T1: human TIGIT on Jurkat cells (TIGIT/NFAT reporter Jurkat cells, BPS Bioscience #60538); Promega TIGIT Effector … (human, UniProt Q495A1 22-244)
T1 sequence (looked up): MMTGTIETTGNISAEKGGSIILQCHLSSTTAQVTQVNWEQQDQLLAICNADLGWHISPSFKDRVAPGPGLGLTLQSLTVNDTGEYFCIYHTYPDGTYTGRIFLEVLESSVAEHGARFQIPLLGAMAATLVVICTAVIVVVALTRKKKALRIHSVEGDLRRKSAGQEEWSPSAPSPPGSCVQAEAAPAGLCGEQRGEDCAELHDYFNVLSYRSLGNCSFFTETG

T2: his-tagged human TIGIT (Acro Biosystems #TIT-H52H3) (human, UniProt Q495A1 22-141)
T2 construct: Bought protein; also called His-tagged-TIGIT (human); not shown: his tag
T2 sequence (looked up): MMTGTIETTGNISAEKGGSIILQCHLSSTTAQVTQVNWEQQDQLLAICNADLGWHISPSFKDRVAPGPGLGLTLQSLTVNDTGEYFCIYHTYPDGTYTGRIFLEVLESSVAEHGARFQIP

T3: his-tagged murine TIGIT (Acro Biosystems #TIT-M52E6) (murine, UniProt P86176 29-148, limits assumed)
T3 construct: Bought protein; also called mouse his-tagged TIGIT; not shown: his tag
T3 sequence (looked up): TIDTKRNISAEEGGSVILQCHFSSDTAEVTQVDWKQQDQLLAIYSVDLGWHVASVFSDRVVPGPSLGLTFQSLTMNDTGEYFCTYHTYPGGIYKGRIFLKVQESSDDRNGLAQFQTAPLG

B1: 43586p1.2.B8 (scFv, V domains shown)
VH: EVQLLESGGGLVQPGGSLRLSCAASGFTFTSYLMSWVRQAPGKGLEWVSTITWDGDRTYYADSVKGRFTISRDNSKNTLYLQMNSLRVGDTAVYYCAKHWTVFQYGMDVWGQGTTVTVSS
VL: QSVLTQPASASGTPGQRVTITCSGTISNIETKYVSWYQQLPGTAPKLLIYGNHQRPSGVPDRFSGSKSGTSASLAISGLQSEDEADYYCASWENDLKSWVFGGGTKLTVL
B2: 43645p1.D7 (scFv, V domains shown)
VH: EVQLLESGGGLVQPGGSLRLSCAASGFTFSRNSMSWVRQAPGKGLEWVSTINSGSSYTYYADSVKGRFTISRDNSKNTLYLQMNSLRAEDTAVYYCAKDNCNGYHCYGMDVWGLGTTVTVSS
VL: QSVLTQPPSASGTPGQRVTISCSGSTSNVGDHYVHWYQQLPGTAPKLLIYKDDQRPSGVPDRFSGSKSGTSASLAISGLQSEDEADYYCSTWDNTLNGWVFGGGTKLTVL
B3: 43586p1.1.A7 (scFv, V domains shown)
VH: EVQLLESGGGLVQPGGSLRLSCAASGFTFTSYAMSWVRQAPGKGLEWVAGISYDGSIQYYADSVKGRLTISRDNSKNTLNLQMNSLRAGDTAVYYCAKHLTGGTTDYYYYGMDVWGQGTTVTVSS
VL: QSVMTQPPSASGTPGQRVTISCSGSSSNIGTNRYVHWYKQVPGTAPKLLIYGNHQRPSGVPDRFSGSKSGTSASLAISGLQSEDEADYYCAAWDGSLSGWVFGGGTKLTVL
B4: 43645p1.C11 (scFv, V domains shown)
VH: EVQLLESGGGLVQPGGSLRPSCATSGFTFSSYWMSWVRQAPGKGLEWVSGIHISDSTYYADSVKGRFTISRDNSKNTLYLQMNSLRAEDTAVYYCAKGHTVLQYGMDVWGQGTTVTVSS
VL: QSGLTQPPSASGTPGQRVTISCSGDISNTRNNYVSWYQQLPGTAPKLLIYGNHQRPSGVPDRFSGSKSATSASLAISGLQSEDEADYYCGTWDNTLNAWVFGGGTKLTVL
B5: 43586p1.1.G9 (scFv, V domains shown)
VH: EVQLLESGGGLVQPGGSLRLSCAASGFTFTTYAMSWVRQAPGKGLEWVAGISYIGSDKYYADSVKGRLTISRDNSKNTLYLQMDSLRAEDTAVYYCAKHLTGGTTDYYYYGMDVWGQGTTVTVS
VL: QSVLTQPPSASGTPGQRVTISCSGSTSNIGTSRYVHWYQHLPGTAPKLLIYLDSQRPSGVPDRFSASKSGTSASLAISGLQSEDEADYYCSAWDDSLSAWVFGGGTKLTVL
B6: 43586p2.C09 (scFv, V domains shown)
VH: B3 VH with A23T, R38S, Q58K, N80Y, G89E, V93I, G111A
VL: B5 VL with S32N, H40Q, L41F, L52G, D53T, S54D, Q55R, P61S, A66G, S91A
B7: 43586p2.B02 (scFv, V domains shown)
VH: B3 VH with R38S, I57S, Q58K, N80Y, G89E, V93I, G111A
VL: B3 VL with M4L, S26R, K39Q, V41L, G95D, G99A
B8: 43352p1.A11 (scFv, V domains shown)
VH: DVQLVESGGGVVRPGESLRLSCAASGFTFSSHAMSWVRQAPGEGLEWVSLTSGNGVSAYYADSVKGRFTISRDNSKNTLYLQMNSLSAEDTAIYYCARGTYLISFFDYWGLGTLVTVSS
VL: QSVLTQPPSASGTPGQRVTISCSGISAKIGNNYVSWYQQLPGTAPKLLIYFNNQRPSGVPDRFSGSKSGTSASLAISGLQSEDEADYYCASWDDSLNAWLFGGGTKLTVL
B9: 43352p1.D11 (scFv, V domains shown)
VH: B8 VH with T51I
VL: B8 VL
B10: 43645p1.C9 (scFv, V domains shown)
VH: EVQLLESGGGLVQPGGSLRLSCAASGFTFSDFWMSWVRQAPGKGLEWVSSIINIQTYDYATYYADSVKGRFTISRDNSKNTLYLQMNSLRAEDTAIYYCAKDVAPGLPGGMDVWGQGTTVTVSS
VL: QSVLTQPPSASGTPGQRVTISCSGSNSNIRNNFVSWYQHLPGTAPKLLIYGNSQRPSGVPDRFSGSKSGTSASLAISGLQSEDEADYYCTSWDFSVSGWVFGGGTKLTVL
B11: 43645p1.F7 (scFv, V domains shown)
VH: B10 VH
VL: B10 VL with S97N
B12: 43586p1.1.C2 (scFv, V domains shown)
VH: EVQLLESGGGLVQPGGSLRLSCAASGFTFSDYYMNWVRQAPGKGLEWVSSINWNGGTTYYADSVKGRFTISRDNSRNTLYLQMNSLRAEDTAVYYCAKDQNWNFYYGMDVWGQGTTVTVSS
VL: QSVLTQPPSASGTPGQRVTISCSGGSSNIGTNYVSWYQQLPGTAPKLLLYKEDQRPSGVPDRFSGSKSGTSASLAISGLQSEDEADYYCATWDGSLRSWVFGGGTKLTVL
B13: 43586p2.D06 (scFv, V domains shown)
VH: EVQLLESGGGLVQPGGSLRLSCAASGFTFSSYWMNWVRQAPGKGLEWVSGIYSGGTTYYADSVKGRFTISRDNSKNTLYLQMNSLRAEDTAVYYCTRENWKENNAMDVWGQGTTVTVSS
VL: QSVLTQPPSASGTPGQRVTISCSGVTSNIASYHVYWYQQLPGTAPKLLIYLNSQRPSGVPDRFSASKSGTSASLAISGLQSEDEADYYCATWDGSLNGWVFGGGTKLTVL
B14: 43586p2.G02 (scFv, V domains shown)
VH: B13 VH
VL: B13 VL with L96Q

target: T1, human TIGIT on Jurkat cells (TIGIT/NFAT …); test: cell-based or functional assay

| max. signal (% of 22G2) | Binder |
| --- | --- |
| 130 % of 22G2 | B1 |
| 57 % of 22G2 | B2 |
| 89 % of 22G2 | B3 |
| 119 % of 22G2 | B4 |
| 113 % of 22G2 | B5 |
| 115 % of 22G2 | B6 |
| 106 % of 22G2 | B7 |
| 101 % of 22G2 | B8 |
| 105 % of 22G2 | B9 |

target: T2, his-tagged human TIGIT (Acro Biosystems …); test: ELISA, coated His-TIGIT, 1 ug/ml

| Elisa OD450 [OD450] | Binder |
| --- | --- |
| 2.1 | B1 |
| 2.06 | B2 |
| 2.01 | B3 |
| 2.18 | B4 |
| 2.23 | B5 |
| 2.07 | B6 |
| 1.94 | B7 |
| 0.677 | B8 |
| 2.15 | B9 |
| 1.86 | B10 |
| 1.97 | B11 |
| 1.49 | B12 |
| 1.77 | B13 |
| 1.88 | B14 |

target: T3, his-tagged murine TIGIT (Acro …); test: ELISA, coated His-TIGIT, 1 ug/ml

| Elisa OD450 [OD450] | Binder |
| --- | --- |
| 1.66 | B1 |
| 0.32 | B2 |
| 0.045 | B3 |
| 1.69 | B4 |
| 0.046 | B5 |
| 0.046 | B6 |
| 0.046 | B7 |
| 0.056 | B8 |
| 0.046 | B9 |
| 0.065 | B10 |
| 0.489 | B11 |
| 0.046 | B12 |
| 1.36 | B13 |
| 1.7 | B14 |

target: T4, His-tagged cynomolgus monkey TIGIT (Acro Biosystems #TIT-05223) (cynomolgus monkey, UniProt A0A7N9I9V4 89-209); test: ELISA, coated His-TIGIT, 1 ug/ml
T4 construct: Bought protein; also called cyno TIGIT; cynomolgus TIGIT; not shown: His tag
T4 sequence (A0A7N9I9V4 entry or part of it): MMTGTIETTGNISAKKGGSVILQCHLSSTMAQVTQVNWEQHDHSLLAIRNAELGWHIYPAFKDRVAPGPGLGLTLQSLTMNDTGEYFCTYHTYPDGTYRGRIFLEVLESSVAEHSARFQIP

| Elisa OD450 [OD450] | Binder |
| --- | --- |
| 1.46 | B1 |
| 1.88 | B2 |
| 1.34 | B3 |
| 1.65 | B4 |
| 1.6 | B5 |
| 1.79 | B6 |
| 1.59 | B7 |
| 0.048 | B8 |
| 0.044 | B9 |
| 1.39 | B10 |
| 1.52 | B11 |
| 0.817 | B12 |
| 1.66 | B13 |
| 1.5 | B14 |

target: T1, human TIGIT on Jurkat cells (TIGIT/NFAT …); test: flow cytometry, TIGIT/NFAT Jurkat cells, 10 ug/ml

| MFI [MFI] | Binder |
| --- | --- |
| 9470 | B1 |
| 9660 | B2 |
| 9000 | B3 |
| 9040 | B4 |
| 9000 | B5 |
| 8830 | B6 |
| 9090 | B7 |
| 8790 | B8 |
| 8650 | B9 |
| 16500 | B10 |
| 15400 | B11 |
| 6710 | B12 |
| 15400 | B13 |
| 7590 | B14 |

target: T2, his-tagged human TIGIT (Acro Biosystems …); test: SPR (Carterra LSA), scFv-Fc captured, His-TIGIT analyte
Protocol: (§1) Binding affinities of anti-TIGIT antibodies to human, cyno, and murine TIGIT were measured by Surface Plasmon Resonance (SPR) on a Carterra LSA instrument. Goat anti-human Fc antibody was amine coupled to a HC30M chip. ScFv-Fc supernatants were diluted 30-fold with HBSTE and were captured by the anti-human Fc coupled HC30M chip. A 1:2 dilution series of his-tagged human TIGIT, starting at 400 nM, was injected onto the chip for binding. A dilution series was also carried out for cyno TIGIT and murine TIGIT. Data were analyzed using the Carterra™ Kinetics software.

| Kd [nM] | Binder |
| --- | --- |
| 0.125 | B1 |
| 6.76 | B2 |
| 0.721 | B3 |
| 0.0888 | B4 |
| 1.08 | B5 |
| 0.354 | B6 |
| 2.19 | B7 |
| 0.0716 | B8 |
| 0.0685 | B9 |
| 0.195 | B10 |
| 0.0741 | B11 |
| 0.383 | B12 |
| 0.344 | B13 |
| 0.639 | B14 |

target: T3, his-tagged murine TIGIT (Acro …); test: as above
Protocol: as §1

| Kd [nM] | Binder |
| --- | --- |
| 501 | B1 |
| 3.09 | B13 |
| 1.57 | B14 |

target: T4, His-tagged cynomolgus monkey TIGIT …; test: as above
Protocol: as §1

| Kd [nM] | Binder |
| --- | --- |
| 25.3 | B1 |
| 6.27 | B2 |
| 20 | B3 |
| 18.8 | B5 |
| 2.62 | B6 |
| 26.8 | B7 |
| 23.5 | B10 |
| 3.69 | B12 |
| 1.06 | B13 |
| 2.37 | B14 |
